Test results from publication doi:10.1101/2021.08.02.454546 (bioRxiv, 2021).

Key:
[1] = target: T1, SARS-CoV-2 S2 peptide #288 (1149-KEELDKYFKNHTSPD-1163) (SARS-CoV-2 (spike 1149-1163, matches …)); test: ELISA; details: both partners purified
T1 chain: KEELDKYFKNHTSPD

[2] = target: T2, shorter version of peptide #289 (1153-DKYFKNHTSPD-1163) (SARS-CoV-2 (spike 1153-1163, matches …)); test: SPR; details: both partners purified
T2 chain: DKYFKNHTSPD

B1: CV3–25 IgG (antibody, V domains shown)
VH: EVQLVESGAEVKKPGESLKISCKGSGYTFTRYWIGWVRQMPGKGLEWMGIIYPGDSDTRYSPSFQGHVTISADKSISTAYLQWNSLKASDTAMYYCARLPQYCSNGVCQRWFDPWGQGTLVTVSS
VL: EIVLTQSPSSVSASVGDRVTITCRASQGISSWLAWYQQKPGKAPKLLIYAASSLQSGVPSRFSGSGSGTDFTLTISSLQPEDFATYYCQQGNSFPYTFGQGTNLEIK
[1]
  binding result: binds
[2]
  Kd: ~1000 nM
